From patent US6545141

Biological target: T7 peptide-added FC99 protein having T7 peptide added to the N-terminal of the amino acid sequence described as SEQ ID NO: 1 (human) (UniProt Q92529)
Test: cell-based or functional assay

UniProt Q92529, sequence (Q92529 other isoform, or with tags, fused parts or gaps limits assumed): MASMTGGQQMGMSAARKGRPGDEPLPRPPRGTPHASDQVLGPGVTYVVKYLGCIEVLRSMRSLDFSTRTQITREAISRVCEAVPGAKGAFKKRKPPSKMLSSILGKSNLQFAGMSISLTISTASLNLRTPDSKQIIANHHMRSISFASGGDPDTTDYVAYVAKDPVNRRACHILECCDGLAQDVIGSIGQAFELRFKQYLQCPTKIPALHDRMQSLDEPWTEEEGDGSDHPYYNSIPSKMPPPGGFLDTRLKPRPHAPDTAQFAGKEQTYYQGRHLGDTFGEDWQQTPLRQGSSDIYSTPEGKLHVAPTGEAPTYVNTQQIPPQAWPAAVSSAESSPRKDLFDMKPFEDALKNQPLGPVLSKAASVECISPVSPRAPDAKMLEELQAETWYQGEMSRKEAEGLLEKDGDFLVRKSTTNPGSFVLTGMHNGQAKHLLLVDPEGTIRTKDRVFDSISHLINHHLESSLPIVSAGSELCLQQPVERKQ

TrkB receptor activated by the administration of BDNF
BDNF-dependent increase in the tyrosine phosphorylation of the FC99 protein (band densities of Lanes 2 and 3, NIH Image): 2 fold
